From US20060104980A1

Legend:
[1] = target: HCV 1b E2 deletion construct pDN-411 (influenza virus; Hepatitis C virus genotype 1b); experiment: GNA capture ELISA, HEK-293 extracts
[2] = target: HCV 1b E2 deletion construct pDN-411 (influenza virus; Hepatitis C virus genotype 1b); experiment: flow cytometry, transiently transfected HEK-293 cells, 10 ug/ml

Row | Substance | OD [1] | mean fluorescence [2]
1 | HMAb CBH-2 (antibody) | 0.1 to 0.5 od | 
2 | HMAb CBH-4B (antibody) | > 0.5 od | 17
3 | HMAb CBH-5 (antibody) | > 0.5 od | 17
4 | HMAb CBH-7 (antibody) | > 0.5 od | 19
5 | HMAb CBH-8C (antibody) | > 0.5 od | 
6 | HMAb CBH-8E (antibody) | 0.1 to 0.5 od | 
7 | HMAb CBH-17 (antibody) | 0.1 to 0.5 od | 
